Measurements published in US20240166725A1 (BEIJING WISDOMAB BIOTECHNOLOGY, published 2024).
Like-named read-outs stand apart in the source and are kept apart here.

Experiments:
[1] = biological target: T1, varicella-zoster virus recombinant protein gH-His/gL (varicella-zoster virus strain Oka, UniProt Q775J3 18-795; Q9J3N1 23-160); test: competition ELISA on coated gH/gL, scFv phage at fixed concentration, anti-M13 detection
[2] = biological target: T2, gH/gL protein of varicella-zoster virus, native, on VZV (Oka) virions and VZV-infected MRC5 cells (varicella-zoster virus (Oka), UniProt Q775J3 18-841); test: cell-based or functional assay
T2 sequence (Q775J3 18-841): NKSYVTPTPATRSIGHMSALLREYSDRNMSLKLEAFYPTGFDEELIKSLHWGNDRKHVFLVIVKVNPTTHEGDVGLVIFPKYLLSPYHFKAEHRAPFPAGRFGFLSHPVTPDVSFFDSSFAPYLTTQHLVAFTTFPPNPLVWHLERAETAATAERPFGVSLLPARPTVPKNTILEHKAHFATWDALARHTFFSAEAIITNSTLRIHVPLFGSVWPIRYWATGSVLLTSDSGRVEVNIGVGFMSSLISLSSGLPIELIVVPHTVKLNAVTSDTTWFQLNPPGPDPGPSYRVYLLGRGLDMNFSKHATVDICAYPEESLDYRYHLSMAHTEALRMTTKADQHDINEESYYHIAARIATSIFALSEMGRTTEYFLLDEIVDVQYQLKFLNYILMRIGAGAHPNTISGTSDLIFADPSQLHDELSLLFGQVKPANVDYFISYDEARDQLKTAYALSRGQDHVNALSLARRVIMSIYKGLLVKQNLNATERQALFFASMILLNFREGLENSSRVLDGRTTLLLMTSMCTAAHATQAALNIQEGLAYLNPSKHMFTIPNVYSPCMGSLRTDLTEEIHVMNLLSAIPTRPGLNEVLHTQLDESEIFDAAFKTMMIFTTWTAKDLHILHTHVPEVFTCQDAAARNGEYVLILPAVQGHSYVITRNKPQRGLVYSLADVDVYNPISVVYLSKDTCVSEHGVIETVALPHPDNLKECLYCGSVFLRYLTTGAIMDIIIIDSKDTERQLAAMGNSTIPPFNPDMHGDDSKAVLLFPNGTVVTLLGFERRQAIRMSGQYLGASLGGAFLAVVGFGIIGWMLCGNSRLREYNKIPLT

[3] = biological target: T2, gH/gL protein of varicella-zoster …; test: cell-based or functional assay; remark: listed apart in the source
[4] = biological target: T1, varicella-zoster virus recombinant …; test: competition ELISA on coated gH/gL; competitor: phage S7A10 (same clone), bound phage detected with HRP-anti-M13
[5] = biological target: T2, gH/gL protein of varicella-zoster …; test: cell-based or functional assay; remark: listed apart in the source
[6] = biological target: T2, gH/gL protein of varicella-zoster …; test: cell-based or functional assay; remark: listed apart in the source
[7] = biological target: T1, varicella-zoster virus recombinant …; test: competition ELISA on coated gH/gL; competitor: phage H4H8-L1B7 (same clone), bound phage detected with HRP-anti-M13
[8] = biological target: T1, varicella-zoster virus recombinant …; test: competition ELISA on coated gH/gL; competitor: phage S8B8 (same clone), bound phage detected with HRP-anti-M13
[9] = biological target: T1, varicella-zoster virus recombinant …; test: competition ELISA on coated gH/gL; competitor: phage S8E1 (same clone), bound phage detected with HRP-anti-M13
[10] = biological target: T1, varicella-zoster virus recombinant …; test: solid-phase phage display screening on gH-His/gL

T1 sequence (Q775J3 18-795, tags left off, chain 1 of 2): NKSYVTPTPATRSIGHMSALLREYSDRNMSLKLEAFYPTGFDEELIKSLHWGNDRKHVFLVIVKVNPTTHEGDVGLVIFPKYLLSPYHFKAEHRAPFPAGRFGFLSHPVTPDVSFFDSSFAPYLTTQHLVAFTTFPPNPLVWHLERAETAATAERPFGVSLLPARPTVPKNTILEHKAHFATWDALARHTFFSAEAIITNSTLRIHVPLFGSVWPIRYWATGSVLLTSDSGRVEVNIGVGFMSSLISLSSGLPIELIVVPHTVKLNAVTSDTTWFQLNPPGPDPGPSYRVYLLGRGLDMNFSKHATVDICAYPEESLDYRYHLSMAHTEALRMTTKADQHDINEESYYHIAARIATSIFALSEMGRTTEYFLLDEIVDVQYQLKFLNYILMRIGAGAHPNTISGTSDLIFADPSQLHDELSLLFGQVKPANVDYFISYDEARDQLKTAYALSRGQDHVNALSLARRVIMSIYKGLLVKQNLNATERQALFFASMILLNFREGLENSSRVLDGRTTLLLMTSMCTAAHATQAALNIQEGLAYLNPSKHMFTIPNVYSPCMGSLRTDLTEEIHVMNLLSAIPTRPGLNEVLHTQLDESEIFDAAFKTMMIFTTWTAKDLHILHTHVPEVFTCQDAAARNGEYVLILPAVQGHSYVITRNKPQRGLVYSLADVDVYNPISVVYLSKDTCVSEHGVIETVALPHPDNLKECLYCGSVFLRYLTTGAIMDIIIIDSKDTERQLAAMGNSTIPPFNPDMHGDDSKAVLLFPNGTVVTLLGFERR
T1 sequence (Q9J3N1 23-160 limits assumed, chain 2 of 2): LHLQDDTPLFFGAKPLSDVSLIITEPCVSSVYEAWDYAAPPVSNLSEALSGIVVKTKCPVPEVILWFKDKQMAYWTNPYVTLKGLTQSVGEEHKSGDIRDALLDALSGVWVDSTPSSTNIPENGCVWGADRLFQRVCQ

Binder | PRNT50(µg/mL), plaque reduction, antibody added 24 h after infection of MRC5 cells (cell-to-cell transmission) [2] | PRNT50 (µg/mL), plaque reduction neutralisation of VZV (Oka) on MRC5 cells [3] | PRNT50(µg/mL), plaque reduction neutralisation of VZV on MRC5 cells [5] | PRNT50(µg/mL), plaque reduction, antibody added 24 h after infection of MRC5 cells (cell-to-cell transmission) [6] | other results
single chain fragment variable S8B8 (phage-displayed) (scFv, also called clone S8B8; phage S8B8) scFv: EVKLVESGGGLVQPGGSLKLSCAASGFTFSSYTMSWVRQTPEKRLEWVAFISNGGDNNYYADTVKGRFIISRDNAKNTLYLQMSSLKSEDTAMYYCARHNGNWGFAYWGQGTLVTVSAGGGGSGGGGSGGGGSQNVLTQSPTTMAASPGEKITITCSASSSISSNYLHWYQQKPGFSPKLLIYRTSNLASGVPARFSGSGSGTSYSLTIGTMEAEDVATYYCQQGSSIPLTFGAGTKLEIK |  |  |  |  | binding result [1]: binds
S7A10-IgG1 (antibody, V domains shown, also called monoclonal antibody S7A10) VH: QVQLKESGPGPVKPSQSLSLTCSVTGYSITSGNYWNWVRQFPGNKLEWMAYISYDGSTYYNPSLKNRISITRDTSKNQFFLKLNSVTTEDTATYYCAEGYYGYWFAYWGQGTLVTVSA VL: ENVLTQSPAILSASPGEKVTMTCRASSSVSYMHWYQQKPGSSPKPWIYATSNLASGVPARFSGSGSGTSYSLTISRVEAEDAATYYCQQWSSNPFTFGSGTKLEIKR | 0.93 µg/mL | 0.34 µg/mL |  |  | IC50 (read off the curve) [4]: ~2 nM
H4H8-L13C7-IgG1 (antibody, V domains shown) VH: EVQLVESGGGVVQPGRSLRLSCGASGFTFNTYAMHWVRQAPGKGMEWVAVISYGGGNRYYAASVKGRFTISRDNSKNTLFLQLNTLRPEDTAVYYCARARDNHYFFGMDVWGRGTTVTVSS VL: DIQMTQSPSSVSASVGDRVTITCRASQGISSWLAWYQQKPGKAPKLLIYAASSLQSGVPSRFSGSGSGTDFTLTISSLQPEDFATYYCQQATYFPINFGGGTKVEIKR |  |  | > 0.4 µg/mL | > 2 µg/mL | 
H4H8-L13C1-IgG1 (antibody, V domains shown) VH: EVQLVESGGGVVQPGRSLRLSCGASGFTFNTYAMHWVRQAPGKGMEWVAVISYGGGNRYYAASVKGRFTISRDNSKNTLFLQLNTLRPEDTAVYYCARARDNHYFFGMDVWGRGTTVTVSS VL: DIQMTQSPSSVSASVGDRVTITCRASQGISSWLAWYQQKPGKAPKLLIYAASSLQSGVPSRFSGSGSGTDFTLTISSLQPEDFATYYCQEGFYFPINFGGGTKVEIKR |  |  | 0.016 µg/mL | 0.28 µg/mL | 
H4H8-L1B7-IgG1 (antibody, V domains shown, also called H4H8-LIB7-IgG1; monoclonal antibody H4H8-L1B7) VH: EVQLVESGGGVVQPGRSLRLSCGASGFTFNTYAMHWVRQAPGKGMEWVAVISYGGGNRYYAASVKGRFTISRDNSKNTLFLQLNTLRPEDTAVYYCARARDNHYFFGMDVWGRGTTVTVSS VL: DIQMTQSPSSVSASVGDRVTITCRASQGISSWLAWYQQKPGKAPKLLIYAASSLQSGVPSRFSGSGSGTDFTLTISSLQPEDFATYYCQQANSFPLTFGGGTKVEIKR |  |  |  |  | IC50 (read off the curve) [7]: ~2 nM
H4H8-L14H8-IgG1 (antibody, V domains shown) VH: EVQLVESGGGVVQPGRSLRLSCGASGFTFNTYAMHWVRQAPGKGMEWVAVISYGGGNRYYAASVKGRFTISRDNSKNTLFLQLNTLRPEDTAVYYCARARDNHYFFGMDVWGRGTTVTVSS VL: DIQMTQSPSSVSASVGDRVTITCRASQGISSWLAWYQQKPGKAPKLLIYAASSLQSGVPSRFSGSGSGTDFTLTISSLQPEDFATYYCQQSSYFPIAFGGGTKVEIKR |  |  | 0.016 µg/mL | 0.31 µg/mL | 
S8B8-IgG1 (antibody, V domains shown, also called monoclonal antibody S8B8) VH: EVKLVESGGGLVQPGGSLKLSCAASGFTFSSYTMSWVRQTPEKRLEWVAFISNGGDNNYYADTVKGRFIISRDNAKNTLYLQMSSLKSEDTAMYYCARHNGNWGFAYWGQGTLVTVSA VL: QNVLTQSPTTMAASPGEKITITCSASSSISSNYLHWYQQKPGFSPKLLIYRTSNLASGVPARFSGSGSGTSYSLTIGTMEAEDVATYYCQQGSSIPLTFGAGTKLEIKR | 3.21 µg/mL | 0.38 µg/mL |  |  | IC50 (read off the curve) [8]: ~0.3 nM
S8E1-IgG1 (antibody, V domains shown, also called monoclonal antibody S8E1) VH: EVKLVESGPGLVKPSQSLSLTCSVTGYSITSGYYWNWIRQFPGNKLEWMGYISYDGSNNYNTSLKNRISITRDTSKNQFFLKLNSVTTEDTATYYCAREDVNYPPYALDYWGQGTSVTVSS VL: SIVMTQTPLSLPVSLGDQASISCRSSQSLVHSNGNTYLHWYLQKPGQSPKLLIYKVSNRFSGVPDRFSGSGSGTDFTLKISRVEAEDLGVYFCSQSTHVPWTFGGGTKLEMKR | 2.82 µg/mL | 0.38 µg/mL |  |  | IC50 (read off the curve) [9]: ~0.5 nM
single chain fragment variable S8E1 (phage-displayed) (scFv, also called clone S8E1; phage S8E1) scFv: EVKLVESGPGLVKPSQSLSLTCSVTGYSITSGYYWNWIRQFPGNKLEWMGYISYDGSNNYNTSLKNRISITRDTSKNQFFLKLNSVTTEDTATYYCAREDVNYPPYALDYWGQGTSVTVSSGGGGSGGGGSGGGGSSIVMTQTPLSLPVSLGDQASISCRSSQSLVHSNGNTYLHWYLQKPGQSPKLLIYKVSNRFSGVPDRFSGSGSGTDFTLKISRVEAEDLGVYFCSQSTHVPWTFGGGTKLEMK |  |  |  |  | binding result [10]: binds
single chain fragment variable S7A10 (phage-displayed) (scFv, also called clone S7A10; phage S7A10) scFv: QVQLKESGPGPVKPSQSLSLTCSVTGYSITSGNYWNWVRQFPGNKLEWMAYISYDGSTYYNPSLKNRISITRDTSKNQFFLKLNSVTTEDTATYYCAEGYYGYWFAYWGQGTLVTVSAGGGGSGGGGSGGGGSENVLTQSPAILSASPGEKVTMTCRASSSVSYMHWYQQKPGSSPKPWIYATSNLASGVPARFSGSGSGTSYSLTISRVEAEDAATYYCQQWSSNPFTFGSGTKLEIK |  |  |  |  | binding result [10]: binds
